For assay [1], the target named is HBV virions (Genotype D) (Hepatitis B virus genotype D). Kind of assay: cell-based or functional assay.
Assay [2] concerns the target T1, HBsAg genotype A (adw2) (Hepatitis B virus genotype A (adw2), UniProt P03141 175-400).
T1 construct: the form coated in the ELISA is not described
The experiment in a line: ELISA on HBsAg of four genotypes.

For assay [3], the target named is T2, HBsAg genotype B (adw) (Hepatitis B virus genotype B (adw), UniProt Q9PWW3 175-400).
T2 construct: the form coated in the ELISA is not described
The experiment in a line: ELISA on HBsAg of four genotypes. On the technique in general: ELISA stands for enzyme-linked immunosorbent assay.

Assay [4] has as its target T3, HBsAg genotype C (adr) (Hepatitis B virus genotype C (adr), UniProt P30019 1-226).
T3 construct: the form coated in the ELISA is not described
Kind of assay: ELISA on HBsAg of four genotypes.

In assay [5] the target is T4, HBsAg loop 1 linear peptide (Hepatitis B virus, not fully specified; cysteine pairing not given here).
T4 construct: The peptide is printed with alternative residues at two positions
T4 peptide: TCTTPAQGNSMFPSC
The experiment in a line: direct ELISA on coated linear peptide (50 ng/well).

The target of assay [6] is T5, HBsAg loop 2 linear peptide (Hepatitis B virus, not fully specified; cysteine pairing not given here).
T5 construct: The peptide is printed with alternative residues at one position
T5 peptide: CTKPTDGNCT
Kind of assay: direct ELISA on coated linear peptide (50 ng/well).

For assay [7], the target named is T6, recombinant small-HBsAg (Hepatitis B virus).
T6 construct: also called recombinant HBsAg; rHBsAg
Kind of assay: QCM (Attana Cell A200), rHBsAg amine-coupled on chip, 25 C.

No end group written: not given here.

B1: mAb006-11-IgG4 (antibody, V domains shown)
VH: QLQLQESGPGLVKPSETLSLTCTVSGGSMNINDYYWDWVRLSPGKGLEWIGAIYSSGTTYYNPSLKSRVTISVDMSKDQFSLRLSSVTAADTAVYYCVRDGPHRLYYGSGTYYNPRGGYYSYALDVWGQGTTVIV
VL: QLVLTQSPSASASLGASVKLTCTLSSGHGTYAIAWHQLRSEKGPRYLMKVNSDGSHIKGDGIPDRFSGSSSGAERYLIISSLQSEDEADYYCQTWGTGIVIFGGGTKLTVL
With B1, the “EC50, in-vitro neutralization (HBeAg data)” value (from here on “EC50, in-vitro neutralization”) in assay [1] is 0.242 nM.

B2: mAb006-11-IgG1 (antibody, V domains shown)
VH: QLQLQESGPGLVKPSETLSLTCTVSGGSMNINDYYWDWVRLSPGKGLEWIGAIYSSGTTYYNPSLKSRVTISVDMSKDQFSLRLSSVTAADTAVYYCVRDGPHRLYYGSGTYYNPRGGYYSYALDVWGQGTTVIV
VL: QLVLTQSPSASASLGASVKLTCTLSSGHGTYAIAWHQLRSEKGPRYLMKVNSDGSHIKGDGIPDRFSGSSSGAERYLIISSLQSEDEADYYCQTWGTGIVIFGGGTKLTVL
notes: also called mAb11; mAb006-11G1
As usually defined, the Kd is the equilibrium constant for the complex coming apart. On to B2, for which the binding result in assay [2] is on record as “binds”; in assay [3], “binds”; in assay [4] it was “binds”; in assay [5] it was “no binding”; in assay [6], “no binding”. Further, the “EC50, in-vitro neutralization” value in assay [1] came to 12.6 nM. The Kd in assay [7] was 22.7 nM.

B3: mAb006-11-IgG3 (antibody, V domains shown)
VH: QLQLQESGPGLVKPSETLSLTCTVSGGSMNINDYYWDWVRLSPGKGLEWIGAIYSSGTTYYNPSLKSRVTISVDMSKDQFSLRLSSVTAADTAVYYCVRDGPHRLYYGSGTYYNPRGGYYSYALDVWGQGTTVIV
VL: QLVLTQSPSASASLGASVKLTCTLSSGHGTYAIAWHQLRSEKGPRYLMKVNSDGSHIKGDGIPDRFSGSSSGAERYLIISSLQSEDEADYYCQTWGTGIVIFGGGTKLTVL
In the case of B3, in assay [1], the “EC50, in-vitro neutralization” value was 1.05 nM.

B4: mAb006-11-IgG2 (antibody, V domains shown)
VH: QLQLQESGPGLVKPSETLSLTCTVSGGSMNINDYYWDWVRLSPGKGLEWIGAIYSSGTTYYNPSLKSRVTISVDMSKDQFSLRLSSVTAADTAVYYCVRDGPHRLYYGSGTYYNPRGGYYSYALDVWGQGTTVIV
VL: QLVLTQSPSASASLGASVKLTCTLSSGHGTYAIAWHQLRSEKGPRYLMKVNSDGSHIKGDGIPDRFSGSSSGAERYLIISSLQSEDEADYYCQTWGTGIVIFGGGTKLTVL
In the case of B4, the “EC50, in-vitro neutralization” value in assay [1] came to 1.32 nM.

The record behind these values is US20240327500A1 (NATIONAL UNIVERSITY OF SINGAPORE, published 2024).
